This series in a line: label from the status in PepcDB records.
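Further: failed if final PepcDB status was selected cloned or expressed and not failed if soluble or beyond.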

With “MQAKLRLWLTFCVVTPVLLLFGNAGLAEQTPAPKVLKPVTSKAVGVTPRGQVLSLSCSSCHGTDGKSVGIMPSFYGKTPQYIETALLEFKSGKRYSTVMGRHAKGYSDDEIHLIAQYCGIKGQKTK”, the protein production result is “failed”.

As to “MQAMTERLEAMLAQGTDNMLLRFTLGKTYAEHEQFDAALPHLRAALDFDPTYSVAWKWLGKTLQGQGDRAGARQAWESGLAAAQSRGDQQVVKELQVFLRRLAREDALEHHHHHH”, the protein production result is “not failed”.

For “MQARLSGTSIGLTGPAATKLVRLSRAIEWMSTIGIVLIVGLIGAVFLVPSWTRNLLLTKLGEIGTRLPLDAGNQALAAVIITVPVAVMLWGLVNVRALFAEFARGQVFTTTAATYLQRFGIAVLAQGLLGPVTATALALALSLSNPPGQRLLVLTFSSNDYVSVIVGGVLVAVAAVMREAARLADENASFV”, the protein production result is “failed”.

Regarding “MQARWIGNMMFHVRTDSNHDVLMDTKEEVGGKDAAPRPLELVLTGLMGCTGMDVVSILRKMKVIDQMKDFRIEIEYERTEEHPRIFTKVHLKYIFKFDGEPPKDKVEKAVQLSQEKYCSVSAILKCSSKVTYEIVYEN”, the protein production entry was “not failed”.

Consider “MQASENSHDDFLFIDDSDEDEILAFGSNETWQVLIVDDDPEIHSVTQLALSDLVVLGRRLEYLHAYSGKDACQLIENNDDIVLVLLDVVMETDDAGLNVVKYIRETLQRKDIRIVLRTGQPGYAPEESVIKEYDINDYKTKTELTRRKLVTTVFAAIRSFQQIATVNENRQGLEKIVSGATELSSQHSLPTFSQSVLSQLRTLISDDISAVFCARGQGIIDNIDDLSFYVLAQIGFDDSLLNQKIDTLQDNQANKQVKACFLQQKHQYLDDSLDLYVAKGDYRAVIHVRLSSPLTEIQTQLLNVFLTGVAVGYENVHLFQKLTNAAYRDWLTNLPNRLEFVRLLDSFAQNDCKNTVAALIDINHFSDINDALGQDIGNKLLSAVGQRIQSIGSDCQLARVGADVFGIIGPADCLTPESLIALFHQPFAAGEQHLPINACFGLCTKEHAQSSGVQVLNQINIALNIAKKNRLEHFAYYHSDIEDQMQWRLNMIRQLRNDFGNNCLELWYQPQLSLTTGKVIGAEALLRWRTADGKFVSPAVFIPLAEYSGLIIEIGDWVISQACKQLKVLEENFSDLSISVNVSIPQFRQDNFVDNIINTMTQYGIKPNKLELEITENILMDEPQIIIDALTKLKAQGISIALDDFGTGFSSLSYLQKLPLNRLKVDRAFVTDINKEGQSVIAETIINLGKKMQLKVIAEGIEEIEQQERLIELGCDEVQGFYYAKPMPADEFINFLHQQS”, for which the protein production entry is “failed”.

In the case of “MQATMTDKNTRELLLDAATTLFAEQGIAATTMAEIAASVGVNPAMIHYYFKTRDSLLDTIIEERIGRIIDMIWEPVTGEEDDPLIMVRDLVNRIVNTCETMLWLPSLWIREIVNEGGALREKMLNNIPIDKMNKFSAKIAEGQKQGVINSGIDSRLLIGSIIGLTMLPLATAKLRDQIPTMKGLSSEDIVCHVTALLFTGLTNPSNSDDIKKQRT”, the protein production entry is recorded as “not failed”.

As to “MQATTATPHDIVFLFDCDNTLLDNDHVLADLRAHMMREFGAQNSARYWEIFETLRTELGYADYLGALQRYRLEQPRDTRLLLMSSFLIDYPFASRVYPGALNALRHLGARGPTVILSDGDVVFQPRKIARSGLWDEVEGRVLIYIHKELMLDQVMECYPARHYVMVDDKLRILAAMKKAWGARLTTVFPRQGHYAFDPKEISSHPPADVTVERIGDLVEMDAEWLLAEKR”, the protein production entry is recorded as “not failed”.

Turning to “MQAVLTAALPVFALILTGWLAARWRVLGPSATDALNRYVVYLSLPALLFRAMAQADLRQLADYWGFTAAVAGGIALTFGAAILACRRDGARLTDLSLEGLATSYGNAGYMGIPLCLALLGPASLAPAIITTLLTACVLFGVAIALIEFDQHRDRHWSATLLKVARALLRNPLLAAPLLGLACAAAGITLPAGLDNYAALLGASASPCALVTIGLFLAQSQPGGDRGTVGLMVDGKLLLHPAVTAVLAFAVFDMPPLWAWCAVLMAALPIGTGPFMLAQLYGRDARPSSRAILLSTVLSVPTITALVAWIGRQPLG”, the protein production result is recorded as “failed”.

Regarding “MQDKNFDKLAQKFAKNIYGTPKGEIRAAVLWRDLAPALAQFGDKKLRILDAGGGFGYFSQKLARLGHEVVLCDISAEMLAQAKEQIDASDTPLAIRLVHAPIQALSITEHGMFDLILCHAVVEWLADAKTTMEGLLTMLKPNGLFSLMFYNKEAMRFHALVSGNFDYVAADLKVKKKVRLTPTHPLYIHEVKLWFAQWQMALLKESGVRVIHDYLKKQQAADFDYQKLLSMELEYSQREPYISLGRYVHFLGLEHHHHHH”, the protein production entry is given as “failed”.

As for “MQDSLGIMIKKANNALARDSDHYAKSLGLTGMQISTINFIANNEQHHDLFQRDLELEFNIRKATCSSLVSKMEAADLLIRVPAKDDGRYKRLLLTPKARQLATKIERFFETSEQRMATILGVNTAETYEALRQIAVAFSTPTHAPENWY”, the protein production entry is reported as “failed”.

Consider “MQDWWEADNRLADWLSMILIQRTIEKNAKQALANLGPHLDLESLIGMDMATLEEYIYPAGFYKQKSIYIKALIKWFHGHGASLDKFQTYSTEDLRKELLGIKGVGEETADAMLLYIFERNVFIADLEHHHHHH”, for which the protein production entry is “failed”.

As to “MQEKGFKEGVKASLPTALGYVSIGLACGVVGANSGLTPFQMGLMSLLVYAGSAQFVMCAMFVAGADLFSIVMTVFLINLRNFLMSLHATTIFTKSSLWQTICIGTLITDESYGVLLNEHVHHKNISTAWMHGNNITGYIAWLFAVILGTALGSVIPNPETLGLDFALIAMFVSIFESQLAAMMQFVKLKKIGLILLAVTLSYFLLVIVISESLAVLLSTLIGCFAGVLLDVR”, the protein production result was “failed”.

Turning to “MQEKPAATGKADESAASKELLKLLRKAVAAVSGEDGWASLSNLGSHISKIRPSFDSRNYGYSKLSTLVKNLDIFETRMVPSADKLHTDVFLRLKDGKLEHHHHHH”, the protein production entry is listed as “failed”.

Regarding “MQENPSSSPFERRMESYQTQDSNDLHQLWRPREEDLEKLYRVPLGLTNEQLVEKLQLFSGEGEEKTLFVWVNRDLLGYRFLFWLTGMVLKEKQDGDVEHANKLEIIRDWVIESVVKIDRFLVRRVKQAEEKLKSLIQDYDSFKTSPEKKLLQITGQSEMDFVCLWVVVYTAVIAWKLRAAQTESSATHPSSIVVSECRHLLEQKDVFQRKTPKGLKLVAQLFDRSIEELNPRLKTLGDTDIREIGRLMTILELLPADPYRLLCRIACNLYDGAILLQYGVENYQIGSVRFGLDPYSFDSESKIPKLNNPFITIGK”, the protein production result is on record as “failed”.

As for “MQERIKACFTESIQTQIAAAEALPDAISRAAMTLVQSLLNGNKILCCGNGTSAANAQHFAASMINRFETERPSLPAIALNTDNVVLTAIANDRLHDEVYAKQVRALGHAGDVLLAISTRGNSRDIVKAVEAAVTRDMTIVALTGYDGGELAGLLGPQDVEIRIPSHRSARIQEMHMLTVNCLCDLIDNTLFPHQDD”, the protein production result was “not failed”.

Take “MQFLAPIISIVVGFLSFVLVLRTWMQFCQVSAYLPLSQSLLRLTAPMVNPVSKFIPTVKNINFAALLIALALLAVEKGVLGLPLTMAVLVGLLGIIKMFGQILFFTTLIRALMSWVTRGDHPLDEVIAQITEPVLGIIRKILPRTGMLDFSVMVLGFGLLLLNNLFYSVFGAFWAVA”: the protein production entry is “failed”.

Take “MQFLGRSISKSIRPSLNSTARKSWVLSSQQFLSTSSTESSSRTRGGGGGNRAEKSSEEWPRPMEVPYQPKIANSIDLIGYVHQPVQFDSTLDGKFWAGTVISHEPSSDSKSESDSSSNFWIPVLFEGDLAHTANSYLKKNDRVHITGQILGDVIQSGANSDQAHVQLFKSFHGSFSHQVMVRDLHYIEGSKAMPKVLPTLDQNEGVLKHSASVQRGREFGTNLWFDLVDKPNEWCDYREMKQNGSVNPKHPDFKKKDGSQALWLNNAPTEILSELKDVKFDIPKYAKQPKAGEESWKDLVDNMNKWWDNRVDKRTPKSPDFKHKETGVGLWLSDSPSWVLEKLPPPKSKTSDIYGVQEMF”: the protein production entry is “failed”.

Turning to “MQFLNQSLGFFNKGCFEPIDRNFITESYQALKPIEEIQNKYNKHDNDSFLNELRDSMVALYLDYELINIQKHGLDAKRSSSDEFLEIKQVSFQSQLIKEFEFKMKPIDSKEQELINLFNLKFGHFSWENYLA”, the protein production entry was “failed”.

In the case of “MQFNPTLDSIKTYEAGKPIELVVREYGIKPQNVIKLASNENPFGASPKVIEAIAKEAVNAHRYPDDSMFELKEGLAGRFGVKSENVIIGSGSDQILEMAVHAKCNASSKVLMSKTTFAMYDVYSRQVGARILRTPSDQHHLGEFWEIYQKERPEILFLCLPNNPLGECLDREEVYDFLQKIDDETLVIVDGAYQEYAAFKDSQKRIDPKDLIERFPSSIFLGTFSKAFGLGGMRVGYGIAQPSIIQALMKMRAPFNITTLSLKAAIEALKESAYVEETIKENFKEMRRYEEFALAQGIDFIPSYTNFITLLLKNRVDSSEFSQWLLERGLIVRNLKSYGINAIRITIGRSLENDRCFELMQEYLHQF”, the protein production result is “failed”.

“MQFPSIEDLRARNTMKWTRYGQGVLPLWVAESDFSTCPAVLQAITDAVQREAFGYQPDGSLLSQATAEFYADRYGYQARPEWIFPIPDVVRGLYIAIDHFTPAQSKVIVPTPAYPPFFHLLSATQREGIFIDATGGINLHDVEKG”: the protein production entry is reported as “failed”.

On to “MQFSTTPTLEGLTIVEYCGVVTGEAILGANIFRDFFAGIRDIVGGRSGAYEKELRKAREIAFEELGSQARALGADAVVGIDIDYETVGQNGSMLMVSVSGTAVKTRR”, for which the protein production entry is “not failed”.

Turning to “MQGGSSGIGYGLKYQARCISDVKADRDHTSFLTGTLSLKEENEVHLLRLSSGGSELLCEGLFSHPNEIWDLASSPFDQRIFSTVFSTGDSYGAAIWQIPEPYGQSNSSTLECVASLDAHVGKINCVLWCPSGNSDKLISMDEQNLVFWSLDSSKKSAEVLSKESAGMRHSLSGGAWNPHDVNSVAATSESSIQFWDLRTMKKNNSIERAHVRNVDYNLKREHILVSADDESGIHLWDLRKTKFPVQELPGHTHWTWAVRCNPEYEELILSVGTDSAVNLWFASASSEHKTSESPVEASRQRVNPLLNSYTDYEDSVYGLAWSSREPWIFASLSYDGRVVIESVKPFLPRR”, the protein production result is given as “not failed”.

Consider “MQGISASPERMNAQQRAAHVRQVVLARGDELRRRFPLLRHQDALGAGILAFALSGMLGSALLYVTGHLAWWACLLLNAFFASLTHELEHDLIHSMYFRKQRLPHNLMLGLVWLARPSTINPWVRRHLHLNHHKVSGSESDIEERAITNGEPWGIARLLMVGDNMMAAFIRLLRAPGARRKLGILVRTLAVYAPLALLHWGAWYVFLGFHGANGVAALLGSPIQWSQDTASLMHYVDIAVVVIIGPNVLRTFCLHFVSSNMHYYGDIEPGNVIQQTQVLNPWWMWPLQAFCCNFGSTHGIHHFVVREPFYIRQMTASVAHKVMAEMGVRFNDFGTFARANRFTRQEREAMQPAHNARA”, for which the protein production entry is “failed”.

“MQGNLTALLITAIIVLTVVCIGFLAGRDKSSRTSVEEWSVGGRRFGGLLVWFLVGADLYTAYTFLGLTSTAFTGGSVAFFAIPYSVLAYFIAYFFLPKLWKVAKIHKLTTLADYARERFNSKLLASLVAIVGVLMLIPYICLQLSGIQDTLQVAGTGYINVKFVVIISFILVALYTFFSGIKGPTYTAIIKDILVWVIMLFMVVSLPLIHFNGWTPMIDTLVKEAPQMLTIPSEGPKGIPWFITASIVSALALFMWAHAATGVFTAKSADAVRKNSMFLPLYNIVLILVIFLGFIAFLVLPEDTNPRLALLHLIQTSYGGVAQGFAYATIALASLIPCSIMAIGASNLFANNLYRDLIHPNVSQSKLTLVTRSMVFVVIGLALLFGMLFPTALVTLQLLGVSGMVQIFPAIAVSLFWKNQTKEATVIGLLAGLAVTFIVYITQSAHGIYEGFWGLAANMIAVVILNPLFVKNAGSNPVIEGLFGKKQDANPNQKGA”: the protein production result is “failed”.

Values taken from a protein production outcome set (Wang et al. 2014).
